The labels stand for the following.
B4: 6x-histidine-fused LOS4 (LOS4-His) (enzyme)
chain: MADTVEKVPTVVESSSSSTVEASNSAEKTEPTTEKKKWGDVEDDDDEEEAVSELNSLSIKEEEKPDSILEEPEDSNIKAVTSGDTPYTSASRFEDLNLSPELMKGLYVEMKFEKPSKIQAISLPMIMTPPHKHLIAQAHNGSGKTTCFVLGMLSRVDPTLREPQALCICPTRELANQNMEVLQKMGKFTGITAELAVPDSTRGAPAATRGAPVSAHVVIGTPGTLKKWMAFKRLGLNHLKILVFDEADHMLATDGFRDDSLKIMKDIGRVNPNFQVLLFSATFNETVKDFVARTVKDPNQLFVKREDLALDSVKQYKVVCPKEQNKIEVIKDQIMELGDIGQTIIFVKTKASAQKVHKALAEMGYDVTSVHGNLTESDRDKIVKEFKECLTQVLIATDVIARGFDQQRVNLVVNYNLPTKYETGEPDYEVYLHRVGRAGRFGRKGAVFNLLLDDGWDKEVMEKIEKYFEANVKEIKSWNSEEEYKSALKEAGLLDEHHHHHH
notes: Recombinant protein from E. coli Rosetta (DE3); also called LOS-His

Assay [1] deals with B4. As to the kind of experiment: cell-based or functional assay.
For another assay, the target named is T1, YFP^N-Gle1 (Arabidopsis, UniProt Q0WPZ7 1-611).
T1 construct: BiFC construct expressed in N. benthamiana leaves by agroinfiltration; also called YFP^N-fusion protein of Arabidopsis Gle1; not shown: N-terminal fragment of YFP (YFP^N) for BiFC
T1 sequence: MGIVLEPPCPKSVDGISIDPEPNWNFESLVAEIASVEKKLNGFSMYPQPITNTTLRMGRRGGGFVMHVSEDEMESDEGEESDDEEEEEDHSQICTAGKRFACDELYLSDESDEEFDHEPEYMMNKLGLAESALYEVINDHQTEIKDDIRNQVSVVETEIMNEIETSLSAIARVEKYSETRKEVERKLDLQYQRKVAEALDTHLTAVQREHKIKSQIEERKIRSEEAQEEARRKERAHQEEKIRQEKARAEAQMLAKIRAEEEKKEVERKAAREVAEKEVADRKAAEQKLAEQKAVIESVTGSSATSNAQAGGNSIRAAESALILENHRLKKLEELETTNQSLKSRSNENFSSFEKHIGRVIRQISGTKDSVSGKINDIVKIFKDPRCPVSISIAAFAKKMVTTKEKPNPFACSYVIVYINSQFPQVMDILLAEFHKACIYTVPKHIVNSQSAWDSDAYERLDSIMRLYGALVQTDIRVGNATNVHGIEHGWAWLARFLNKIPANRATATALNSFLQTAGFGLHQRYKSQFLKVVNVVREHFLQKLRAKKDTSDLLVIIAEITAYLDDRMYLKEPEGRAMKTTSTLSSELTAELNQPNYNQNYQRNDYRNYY
The assay is described as follows: BiFC in N. benthamiana leaves (agroinfiltration), confocal microscopy.

Assay [2] addresses T2, LOS4 (BiFC fusion protein, FIG. 8B) (Arabidopsis, UniProt Q93ZG7 1-496).
T2 construct: not shown: YFP fragment for BiFC
T2 sequence (looked up): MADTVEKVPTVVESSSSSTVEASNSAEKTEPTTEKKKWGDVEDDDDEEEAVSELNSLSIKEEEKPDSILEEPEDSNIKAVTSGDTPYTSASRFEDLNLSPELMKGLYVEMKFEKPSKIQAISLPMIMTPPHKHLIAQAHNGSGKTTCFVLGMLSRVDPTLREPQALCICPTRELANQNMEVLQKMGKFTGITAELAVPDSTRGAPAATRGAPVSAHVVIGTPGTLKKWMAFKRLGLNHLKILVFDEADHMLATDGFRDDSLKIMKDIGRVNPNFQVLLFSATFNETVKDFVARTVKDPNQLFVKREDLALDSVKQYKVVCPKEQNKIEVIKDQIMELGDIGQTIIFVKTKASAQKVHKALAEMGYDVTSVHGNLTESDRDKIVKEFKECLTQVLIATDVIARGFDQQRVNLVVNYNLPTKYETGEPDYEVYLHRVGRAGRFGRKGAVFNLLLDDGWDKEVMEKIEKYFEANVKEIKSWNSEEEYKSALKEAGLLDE
As to the kind of experiment: BiFC (FIG. 8), told again in the discussion.

Assay [3] addresses maltose-binding protein (MBP) (UniProt P0AEX9 27-392 = MBP). As to the kind of experiment: in vitro pull-down on nickel resin, Coomassie blue staining. An excerpt:
Purified recombinant proteins are stained with Coomassie blue (left). A mixture of the proteins is bound to a nickel resin or amylose resin, and the resin-bound proteins are eluted and then stained with Coomassie blue (right);
After extensive washing of the resins, the bound proteins were eluted with 2×SDS sample buffer, and the eluted proteins were visualized by Coomassie blue staining.

We go through 4 molecules from patent US20180119166A1 (UNIVERSITY INDUSTRY FOUNDATION YONSEI UNIVERSITY, published 2018).

Bounds are passed on as bounds.

B1: maltose-binding protein (MBP)-fused Gle1 (MBP-Gle1) (other, not shown: large carriers)
chain: MGIVLEPPCPKSVDGISIDPEPNWNFESLVAEIASVEKKLNGFSMYPQPITNTTLRMGRRGGGFVMHVSEDEMESDEGEESDDEEEEEDHSQICTAGKRFACDELYLSDESDEEFDHEPEYMMNKLGLAESALYEVINDHQTEIKDDIRNQVSVVETEIMNEIETSLSAIARVEKYSETRKEVERKLDLQYQRKVAEALDTHLTAVQREHKIKSQIEERKIRSEEAQEEARRKERAHQEEKIRQEKARAEAQMLAKIRAEEEKKEVERKAAREVAEKEVADRKAAEQKLAEQKAVIESVTGSSATSNAQAGGNSIRAAESALILENHRLKKLEELETTNQSLKSRSNENFSSFEKHIGRVIRQISGTKDSVSGKINDIVKIFKDPRCPVSISIAAFAKKMVTTKEKPNPFACSYVIVYINSQFPQVMDILLAEFHKACIYTVPKHIVNSQSAWDSDAYERLDSIMRLYGALVQTDIRVGNATNVHGIEHGWAWLARFLNKIPANRATATALNSFLQTAGFGLHQRYKSQFLKVVNVVREHFLQKLRAKKDTSDLLVIIAEITAYLDDRMYLKEPEGRAMKTTSTLSSELTAELNQPNYNQNYQRNDYRNYY
Consider B1, for which, in assay [1], the “LOS4 ATPase activity with RNA and MBP-Gle1 (2 µM), LOS4-His 1 µM” value is approximately 3 fold; the “LOS4 ATPase activity with RNA, MBP-Gle1 (2 µM) and InsP6 (10 µM)” value was more than 4 fold.

B2: LOS4-YFP^C (other, Arabidopsis, UniProt Q93ZG7 1-496, looked up)
chain: MADTVEKVPTVVESSSSSTVEASNSAEKTEPTTEKKKWGDVEDDDDEEEAVSELNSLSIKEEEKPDSILEEPEDSNIKAVTSGDTPYTSASRFEDLNLSPELMKGLYVEMKFEKPSKIQAISLPMIMTPPHKHLIAQAHNGSGKTTCFVLGMLSRVDPTLREPQALCICPTRELANQNMEVLQKMGKFTGITAELAVPDSTRGAPAATRGAPVSAHVVIGTPGTLKKWMAFKRLGLNHLKILVFDEADHMLATDGFRDDSLKIMKDIGRVNPNFQVLLFSATFNETVKDFVARTVKDPNQLFVKREDLALDSVKQYKVVCPKEQNKIEVIKDQIMELGDIGQTIIFVKTKASAQKVHKALAEMGYDVTSVHGNLTESDRDKIVKEFKECLTQVLIATDVIARGFDQQRVNLVVNYNLPTKYETGEPDYEVYLHRVGRAGRFGRKGAVFNLLLDDGWDKEVMEKIEKYFEANVKEIKSWNSEEEYKSALKEAGLLDE
notes: BiFC construct expressed in N. benthamiana leaves by agroinfiltration; also called YFP^C-fusion protein of LOS4; not shown: C-terminal fragment of YFP (YFP^C) for BiFC
Regarding B2, the binding result in the assay with YFP^N-Gle1 is given as “binds”.

B3: IPK1 (BiFC fusion protein, FIG. 8B) (enzyme, Arabidopsis, UniProt Q93YN9 1-451, looked up)
chain: MEMILEEKDASDWIYRGEGGANLVLAYAGSSPLFVGKVIRIQKARRNDKAIKNANGVVSVLTSDEQHLWRENNELISSPNKEVLEQRYVKNVIIPLLGPKHVDAGVRVSVSKEFLECVDKKVTKQRPLWRVNAANVDTSHDSALILNDHSLFSQGISSGGDCISVEIKPKCGFLPTSRFIGKENMLKTSVSRFKMHQLLKLEYNEISEESEYDPLDLFSGSKESVLEAIKALYSTPQNNFRVFLNGSLILGGSGESTGRTSPEIGYAFEDALKGFIQSEDGHRTECFLQLVSDAVYGSGVLDRLLEIQKLDKLDIEGAIHSYYDLINQPCPICKEGKPLEAELSLHALPLDESLKIVKEYLIAATAKDCSIMISFQSRNAWDSEPSGDYVSLKPTNQTFDYKVHFIDLSLKPLKRMESYYKLDKKIISFYNRKQKAENTAEQIGNSKPSHS
notes: Expressed in N. benthamiana leaves by agroinfiltration; also called inositol 1,3,4,5,6-pentakisphosphate 2-kinase; not shown: YFP fragment for BiFC
As to B3, in assay [2], the binding result is “binds”. On to B4, for which the binding result in assay [3] is reported as “no binding”.
